From publication PMC7588459 (Scientific Reports, 2020) come the findings set out here.

In general, Kd refers to the constant that tells how readily two partners part at equilibrium. Read a low Kd as a tighter complex. In general, koff refers to the rate constant with which the complex falls apart. A lower koff goes with a long-lived complex. By kon is commonly meant a measure of how fast the partners come together.

The target in test [1] is T1, Nipah virus attachment (receptor-binding) glycoprotein (GP), wild type (Nipah virus; strain of the assayed …, UniProt Q9IH62).
T1 construct: source: HEK 293-F FreeStyle, transiently transfected, purified from supernatant (Ni-NTA)
Put plainly: BLI. Conditions: both partners purified.

Test [2] addresses T1, Nipah virus attachment …. Description: ELISA. The settings on record: both partners purified.

B1: monoclonal antibody m102.4 (wild type) (antibody, V domains shown)
VH: EVQVIQSGADVKKPGSSVKVSCKSSGGTFSKYAINWVRQAPGQGLEWMGGIIPILGIANYAQKFQGRVTITTDESTSTAYMELSSLRSEDTAVYYCARGWGREQLAPHPSQYYYYYYGMDVWGQGTTVTVSS
VL: EIVMTQSPGTLSLAPGERATLSCWASQSVRNNYLAWYQQKPGQAPRLVIYNGSTRATGIPDRFSGSGSGTDFTLTISRLDPEDFAVYYCQQYGNSRRVTFGGGTKVEIK
notes: also called wild-type Nipah antibody; anti-Nipah mAb
As for B1, in test [1], the Kd is 70 ± 10 pM, the koff is 4.53e-05 s⁻¹ and the association rate constant (kon) is 646000 M⁻¹ s⁻¹. In test [2], the equilibrium dissociation constant (Kd) was 120 pM.
